Patent publication US8168591 (University of California, dated 2012)

Target: T1, recombinant soluble integrin αvβ3 (UniProt P06756 31-992; P05106 27-718)
T1 construct: extracellular domain; 'extracellular domain' is my reading of that; Made in CHO K1 cells and purified on Ni-NTA; The docking simulation used PDB 1L5G; also called soluble αvβ3
Experiment: Table 2 grade, αvβ3 binding (ELISA-type assay with soluble αvβ3)

T1 sequence (P06756 31-992, chain 1 of 2): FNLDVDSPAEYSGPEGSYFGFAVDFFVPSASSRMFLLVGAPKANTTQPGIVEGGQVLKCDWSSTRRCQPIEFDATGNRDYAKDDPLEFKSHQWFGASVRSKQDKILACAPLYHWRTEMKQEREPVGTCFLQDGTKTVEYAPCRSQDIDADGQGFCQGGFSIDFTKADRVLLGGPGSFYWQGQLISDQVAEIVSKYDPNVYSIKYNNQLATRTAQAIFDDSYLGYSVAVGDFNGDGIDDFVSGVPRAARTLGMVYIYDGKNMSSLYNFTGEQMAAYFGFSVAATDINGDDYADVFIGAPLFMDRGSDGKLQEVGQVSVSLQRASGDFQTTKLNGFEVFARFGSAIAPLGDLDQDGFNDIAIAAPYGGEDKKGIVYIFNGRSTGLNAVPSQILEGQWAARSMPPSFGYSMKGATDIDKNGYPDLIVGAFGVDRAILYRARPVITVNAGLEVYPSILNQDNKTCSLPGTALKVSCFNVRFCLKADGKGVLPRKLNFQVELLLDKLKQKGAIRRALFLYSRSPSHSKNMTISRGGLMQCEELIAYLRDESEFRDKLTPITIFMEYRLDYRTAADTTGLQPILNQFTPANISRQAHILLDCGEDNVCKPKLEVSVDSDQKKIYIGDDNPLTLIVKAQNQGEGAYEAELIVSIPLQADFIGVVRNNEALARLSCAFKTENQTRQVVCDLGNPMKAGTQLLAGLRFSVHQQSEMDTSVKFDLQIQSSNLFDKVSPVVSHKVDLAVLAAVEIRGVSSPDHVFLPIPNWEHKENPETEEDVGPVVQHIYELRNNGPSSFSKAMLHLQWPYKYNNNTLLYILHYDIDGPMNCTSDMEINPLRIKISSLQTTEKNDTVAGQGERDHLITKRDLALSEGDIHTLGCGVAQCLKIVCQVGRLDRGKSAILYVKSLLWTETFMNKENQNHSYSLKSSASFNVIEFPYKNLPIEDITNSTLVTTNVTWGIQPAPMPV
T1 sequence (P05106 27-718, chain 2 of 2): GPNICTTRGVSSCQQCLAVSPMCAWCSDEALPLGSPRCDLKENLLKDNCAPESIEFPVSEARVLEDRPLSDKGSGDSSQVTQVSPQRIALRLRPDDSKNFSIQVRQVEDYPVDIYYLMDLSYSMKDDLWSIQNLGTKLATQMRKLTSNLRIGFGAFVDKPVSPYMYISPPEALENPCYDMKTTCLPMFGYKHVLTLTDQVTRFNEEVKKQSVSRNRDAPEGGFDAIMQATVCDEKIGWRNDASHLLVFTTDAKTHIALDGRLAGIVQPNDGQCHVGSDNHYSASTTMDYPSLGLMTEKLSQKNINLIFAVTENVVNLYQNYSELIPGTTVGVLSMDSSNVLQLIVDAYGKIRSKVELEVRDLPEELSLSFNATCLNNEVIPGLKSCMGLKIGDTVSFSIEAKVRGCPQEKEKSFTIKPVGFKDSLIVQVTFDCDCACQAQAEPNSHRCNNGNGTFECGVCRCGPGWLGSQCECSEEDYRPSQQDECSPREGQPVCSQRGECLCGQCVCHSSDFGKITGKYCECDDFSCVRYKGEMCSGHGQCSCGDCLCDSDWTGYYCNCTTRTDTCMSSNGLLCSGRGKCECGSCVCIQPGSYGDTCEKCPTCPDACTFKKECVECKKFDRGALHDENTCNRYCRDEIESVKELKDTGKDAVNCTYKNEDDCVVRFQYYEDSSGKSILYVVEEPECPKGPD

binding result: binds
B1: FGF-1 Glu102/Tyr109/Asn110 to Ala mutant (3×A) (ligand)
chain: FNLPPGNYKKPKLLYCSNGGHFLRILPDGTVDGTRDRSDQHIQLQLSAESVGEVYIKSTETGQYLAMDTDGLLYGSQTPNEECLFLARLEENHAATYISKKHAEKNWFVGLKKNGSCKRGPRTHYGQKAILFLPLPVSSD
notes: also called 3xA; E1 02A/Y109A/Q110A
